Data on 4 substances can be found in paper PMC4753521.

Usually Kd stands for the constant that tells how readily two partners part at equilibrium.

In experiment [1] the target is TFIIH p62 subunit PH domain, 1-108 (UniProt P32780). The experiment is described as follows: real-time NMR of complex during CK2 reaction. As to conditions: reference: complex before CK2 addition; sites S129.
Experiment [2] shares this target. The experiment in a line: real-time NMR of complex during JNK2α2 reaction. Conditions: reference: Thr55-phosphorylated complex before JNK2α2; sites S46.
The target in experiment [3] is TFIIH p62 PH (Homo sapiens) (UniProt P32780). The experiment is described as follows: ITC. As to conditions: cited from earlier work.
Experiment [4] shares this target. The experiment in a line: ITC. Conditions: cited from earlier work. This is another data set of the same source.
Experiment [5] has the same target. The experiment is described as follows: ITC. As to conditions: cited from earlier work. The source holds these as a separate data set.
For experiment [6], the target named is TFIIH p62 subunit PH domain, 1-108 (UniProt P32780). The experiment is described as follows: real-time NMR of complex during GRK5 reaction. Conditions: reference: complex before GRK5 addition; sites T55.

With “XPC AF, 109-156 (from UniProt Q01831) complex after CK2 reaction”, the “binding against the reference” value in experiment [1] is on record as “stronger”. On to “p53 TAD, 1-73 (from UniProt P04637) same complex after JNK2α2 reaction”, for which, in experiment [2], the “binding against the reference” value is “stronger”. p53 TAD2 (from UniProt P04637): the dissociation constant Kd in experiment [3] was 1 µM; in experiment [4], 5 µM; in experiment [5] it was 6 µM. On to “p53 TAD, 1-73 (from UniProt P04637) complex after GRK5 reaction”, for which the “binding against the reference” value in experiment [6] was “stronger”.
